Test results: patent US10287569B2, “Enzyme for biosynthesis of isoprene and isopentenyl, and mutant thereof” (INSTITUTE OF MICROBIOLOGY, CHINESE ACADEMY OF SCIENCES, priority 2016, dated 2019)

Experiments:
[1] = biological target: T1, alkaliphilic Bacillus sp. N16-5 IspH protein, wild type, SEQ ID NO: 2 (Salipaludibacillus agaradhaerens, UniProt A0A9Q4B1R3); test: Kinetic parameters of the enzymatic reaction converting DMAPP to isoamylene by wild-type IspH protein; assay type: biochemical; conditions: DMAPP as substrate to produce isoamylene; DMAPP 0-1.0 mM; pH 7.8, 37° C., 1 mM NADPH, ferredoxin/ferredoxin-NADP+ reductase, anaerobic
T1 sequence (A0A9Q4B1R3 1-318): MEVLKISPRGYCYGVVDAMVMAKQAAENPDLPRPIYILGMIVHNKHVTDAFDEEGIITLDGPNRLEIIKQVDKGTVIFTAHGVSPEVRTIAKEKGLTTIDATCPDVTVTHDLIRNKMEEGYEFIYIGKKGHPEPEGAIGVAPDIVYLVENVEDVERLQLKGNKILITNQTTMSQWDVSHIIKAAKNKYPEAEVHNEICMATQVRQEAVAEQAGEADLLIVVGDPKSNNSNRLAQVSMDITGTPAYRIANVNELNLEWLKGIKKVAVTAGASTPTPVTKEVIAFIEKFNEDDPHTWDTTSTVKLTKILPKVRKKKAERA

[2] = tested on: plant-derived isoprene synthase (IspS; EC 4.2.3.27); conditions: DMAPP as substrate to produce isoprene; background art; cited from earlier work
[3] = In vitro activity assay using IPP as a substrate; assay type: biochemical
Experimental: (§1) Under anaerobic conditions, in a sealed 5 ml chromatotube, IspH protein and its mutants were determined for their activity, wherein the reaction system comprised: 150 mM NaCl, 20 mM Tris-HCl (pH 7.8), 2 mM DTT, 1 mM NADPH, 1 mM DMAPP, 20 μM ferredoxin, 5 μM ferredoxin-NADP^+ reductase, and 0.5 μM IspH protein or its mutants (H131N and E133Q) obtained above; the total reaction volume was 500 μl; and the reaction condition was incubation at 37° C. for 1 h.
In addition, IPP was used as a substrate to repeat the experiment.

[4] = In vitro activity assay using HMBPP as a substrate (headspace gas GC-MS); assay type: biochemical; conditions: for Production of 2-methyl-2-butene or not / Production of 3-methyl-1-butene or not / Isoprene produced in the reaction system: 1 mM HMBPP, 0.5 μM protein, 37° C. 1 h, headspace gas; for Isoprene produced in the reaction system: ferredoxin, FNR, NADPH, anaerobic
Experimental: as §1, with “HMBPP,” for “DMAPP,”
After the reaction, the headspace gas in the chromatotube was collected, and was subjected to gas chromatography-mass spectrometry (GC-MS). In brief, the gas was analyzed by Agilent Technologies 7890B GG/5977A MSD equipped with Agilent HP-PLOT Al2O3/S GC column (25 m, 0.32 mm, 8.00 μm, 7 inch cage), wherein He gas was used as a carrier gas at a flow rate of 2 ml/min. Later, the experimental data of the test sample (peak retention time, peak area, mass spectrogram, etc.) was compared with the experimental data of the standard substance (isoprene, 3-methyl-1-butene and 2-methyl-2-butene) to identify the gas components and perform quantitative analysis.

[5] = Acid treatment of the reaction solution to determine DMAPP (isoprene in headspace gas by GC-MS); assay type: biochemical; conditions: reaction solution of the HMBPP assay, 8M H2SO4, 37° C. 30 min; indicates DMAPP
Experimental: as §1, with “HMBPP,” for “DMAPP,”
In addition, after the reaction, the reaction solution in the chromatotube was also analyzed to determine whether IPP and DMAPP were produced. Since DMAPP can spontaneously produce isoprene under acidic conditions, the amount of DMAPP in the reaction solution can be determined by determining the amount of isoprene produced in the reaction solution under acidic conditions. In brief, under anaerobic conditions, 50 μL reaction solution was put in another 5 ml chromatotube, and diluted with cold water to a volume of 500 μL, and an equal volume of 8M H2SO4 was added; then, the chromatotube was sealed immediately, and incubated at 37° C. for 30 min. After the incubation, the amount of isoprene in the headspace gas was determined by the above-mentioned GC-MS method, to determine whether the reaction solution contained DMAPP or not.

[6] = In vitro activity assay using DMAPP as a substrate (headspace gas GC-MS, kinetic parameters); assay type: biochemical; conditions: 1 mM DMAPP, 0.5 μM protein, 37° C. 1 h
Experimental: as §1
After the reaction, the headspace gas in the chromatotube was collected, and was subjected to gas chromatography-mass spectrometry (GC-MS).
In order to determine the kinetic parameters of the wild-type IspH protein, DMAPP at different concentrations (0, 0.1, 0.2, 0.3, 0.4, 0.5, 1.0 mM) was used to repeat the experiment.

Molecule | maximum reaction activity [1] | Km value [2] | catalytic activity on IPP [3] | Production of 2-methyl-2-butene or not [4] | Production of 3-methyl-1-butene or not [4] | Isoprene produced in the reaction system [4] | activity of converting HMBPP to isoamylene directly ([4]; headspace gas in different phases of the HMBPP assay) | products formed from HMBPP as a substrate (isoprene, isoamylene, IPP, DMAPP) ([4]; summary of the HMBPP assay) | isoprene produced by treating the reaction solution with acid [5] | conversion of DMAPP to isoamylene (2-methyl-2-butene and 3-methyl-1-butene) [6]
CC(C)=CCOP(=O)(O)OP(=O)(O)O [DMAPP, dimethylallyl pyrophosphate] | about 6.2 nmol min^−1 mg^−1 | reaches the level of mM |  |  |  |  |  |  |  | 
wild-type IspH: IspH protein from alkaliphilic Bacillus sp. N16-5, amino acid sequence SEQ ID NO: 2 (protein, Bacillus sp. N16-5) MEVLKISPRGYCYGVVDAMVMAKQAAENPDLPRPIYILGMIVHNKHVTDAFDEEGIITLDGPNRLEIIKQVDKGTVIFTAHGVSPEVRTIAKEKGLTTIDATCPDVTVTHDLIRNKMEEGYEFIYIGKKGHPEPEGAIGVAPDIVYLVENVEDVERLQLKGNKILITNQTTMSQWDVSHIIKAAKNKYPEAEVHNEICMATQVRQEAVAEQAGEADLLIVVGDPKSNNSNRLAQVSMDITGTPAYRIANVNELNLEWLKGIKKVAVTAGASTPTPVTKEVIAFIEKFNEDDPHTWDTTSTVKLTKILPKVRKKKAERA |  |  | none | yes | yes | 104.4 μg L^−1 OD^−1 | does not have the activity of converting HMBPP to isoamylene directly | can use HMBPP as a substrate to produce isoprene, isoamylene, IPP and DMAPP | 696.3 μg L^−1 OD^−1 | produce isoamylene
IspH-E133Q: IspH mutant, glutamic acid to glutamine at position 133 of SEQ ID NO: 2 (SEQ ID NO: 4) (protein, Mutant protein E133Q) MEVLKISPRGYCYGVVDAMVMAKQAAENPDLPRPIYILGMIVHNKHVTDAFDEEGIITLDGPNRLEIIKQVDKGTVIFTAHGVSPEVRTIAKEKGLTTIDATCPDVTVTHDLIRNKMEEGYEFIYIGKKGHPQPEGAIGVAPDIVYLVENVEDVERLQLKGNKILITNQTTMSQWDVSHIIKAAKNKYPEAEVHNEICMATQVRQEAVAEQAGEADLLIVVGDPKSNNSNRLAQVSMDITGTPAYRIANVNELNLEWLKGIKKVAVTAGASTPTPVTKEVIAFIEKFNEDDPHTWDTTSTVKLTKILPKVRKKKAERA |  |  |  | no | no | 106.4 μg L^−1 OD^−1 |  |  | 6.1 μg L^−1 OD^−1 | 
